Measured values: the supplement of paper PMC9170038

Test system: MS2 coat protein
Experiment: apparent KD of MS2 coat protein; designed switch direction (-1 OFF switch, 1 ON switch): -1; higher = weaker reporter binding
Method in brief: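 On Illumina chips, designed RNA switches with common flanks were made by stalled E. coli RNA polymerase. Titrations with SNAP-549-labelled MS2 coat protein, doubling from 0.7 or 1.5 nM to 3 µM, were done with no input, with 200 uM small-molecule ligand, or with an oligonucleotide input. Apparent KD is the median per design over clusters, from curve fits of normalised cluster fluorescence.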

[1] = Eterna round: R95, input ligand: FMN 200 uM
[2] = Eterna round: R95, input ligand: microRNA oligo, concentration not stated
[3] = Eterna round: R95, input ligand: none
[4] = input ligand: microRNA oligo, concentration not stated

Sequence | apparent KD of MS2 coat protein [1] | apparent KD of MS2 coat protein [2] | apparent KD of MS2 coat protein [3] | apparent KD of MS2 coat protein (input ligand: FMN 200 uM) | apparent KD of MS2 coat protein [4] | apparent KD of MS2 coat protein (input ligand: none)
UUUAACAAGCCAGAUCCUCACAUGAGGAUCACCCAUGUGCUCGUCUGUUUUUGUACUAUCACGUUUGUGAUAGUGUU [Level Boss var2-08] (puzzle: Sensor v3, turn-off variant 1) | 220 nM | 16.2 nM | 295 nM |  |  | 
UACAAUAAGGAGGAUAUCGUAUCGGAAACGAUACGAGAAGGCUUAACAUGAGGAUCACCCAUGUUCUUCAAUAU [Mat - Exclusion 6 - Eli Mod - D97] (puzzle: Exclusion 6) | 18.7 nM | 15.2 nM | 15.6 nM |  |  | 
GUCGUGCGGCUUUGCUGUACGAGUACAUGAGGAUCACCCAUGUAGGAUAUGGCUCGCUUUGCGUGCCAGAAGGGCGUGCGUUGG [Excl-NG3-LRO11] (Eterna round: R96, puzzle: Exclusion NG 3) |  |  |  | 43.2 nM | 25.6 nM | 33.6 nM
GGUUGGCGAGGAUAUACAUGAGGAUCACCCAUGUGAGAGGAAAAAGUGAGAACGAAAAGUAGAAGGCGCUGACG [salish99_ex3_r3_062] (puzzle: Exclusion 3) | 119 nM | 78.9 nM | 225 nM |  |  | 
ACAUGAGGAUCACCCAUGUCAGGCUGGUCCACUCCGGCUGUUGAGGAUAUAGCCCGGUAUCCGCGCUAGAAGGUGAGGGCCGGC [Aenatbe mod 27] (Eterna round: R96, puzzle: Exclusion NG 3) |  |  |  | 25.5 nM | 17.6 nM | 23 nM
CAUACAGUAGUUAGGAUAUUGCAACGCACACGGAACGAGAAGGGACAUGAGGAUCACCCAUGUAGACUGUAAAG [EX-4 Malc #7] (puzzle: Brourd's mod of Exclusion 4) | 20.1 nM | 18.5 nM | 24.7 nM |  |  | 
AACAAGCUUUUUUGAUGAAUGAUAGUAGGUAGCUCCUUUACAUGAGGAUCACCCAUGUUUGUGUAGCUCGAUCUUUU [JR_SV3TOV2_Sub077] (puzzle: Sensor v3, turn-off variant 2) | 12.7 nM | 16.2 nM | 12.1 nM |  |  | 
GUAGCCCGAGGAUAUACAUGAGGAUCACCCAUGUAUCGUUCGAGAAGACUCGGCCCGUGUAGAAGGCGGUAUCC [Eternabot (L1) Solution 22] (Eterna round: R97, puzzle: Exclusion 3) |  |  |  | 25.3 nM |  | 23.1 nM
AUGGUACAUGAGGAUCACCCAUGUUAGGAUAUCGCGUGAUCUAAAACUAAGAGACACACGAGAAGGGACGACAU (puzzle: Exclusion 1) |  | 128 nM |  |  |  | 
GUCGAUGUCAAAGGAUAUCAGCACGAUUAGUGCUGAGAAGGUUGAACAUGAGGAUCACCCAUGUAGAUCAUUAACGACUUAAUU [ENG1/10-A2] (Eterna round: R96, puzzle: Exclusion NG 1) |  |  |  | 28.4 nM | 14.1 nM | 18 nM
CUUUUGUGAGGAUAUCAGUAGUAAUUAAAUAAAAUUACUACUGAGAAGGCACAUGAGGAUCACCCAUGUUCCUC [salish99_ex3_r3_077] (puzzle: Exclusion 4) |  | 39.5 nM |  |  |  | 
AGAGAGUCAGGAUAUCGAAGGUAGUGGAGAGGAGUGUGGUACGAGAAGGGACAUGAGGAUCACCCAUGUAGGAG [JR_Exclusion4)Sub008] (puzzle: Exclusion 4) | 31 nM | 35.4 nM | 33.2 nM |  |  | 
UAAGAUUACCGAGGAUAUGGUAAUUUUUAUUAACCAGAAGGCGGACUCAACAUGAGGAUCACCCAUGUAUAAAGGGUAUUAGUU [JR_ExcNG1_Sub039] (Eterna round: R96, puzzle: Exclusion NG 1) |  |  |  | 87.5 nM | 70.7 nM | 98.7 nM
CACGUGUAAGGAUAUGACAAUGGUAUCUUCGGAUACCAUUGUCAGAAGGUACAUGAGGAUCACCCAUGUAACAC [Ex4-3: 15] (puzzle: Exclusion 4) |  | 17.2 nM |  |  |  | 
AUGAGCAGACGGAGAUCCAACAUGAGGAUCACCCAUGUCUCAAAAGCUUUUUGCUCAUCUUAUCGUACCUUGGUGCA [Mat - Sensor v3 - turn-off var 1 - JL Mod - D14] (puzzle: Sensor v3, turn-off variant 1) | 191 nM | 13.2 nM | 197 nM |  |  | 
AACCAGCGAGGAUAUGCUUGCGCGUGUUCUGGUUAUAAUCGACUUGAGGAUCACCCAAGUAGAAGGCGCUGCCG [EX2 #52] (Eterna round: R97, puzzle: Exclusion 2) |  |  |  | 179 nM |  | 64.2 nM
AAUUUACAUGAGGAUCACCCAUGUGAGGAUAUAUAUAUAUAUUUGUUAUUGUGUGUGUGUAGAAGGCGCGUGAU [JR_Exc1_Sub034] (Eterna round: R97, puzzle: Exclusion 1) |  |  |  | 33.3 nM |  | 42.2 nM

Sequence | apparent KD of MS2 coat protein [1] | apparent KD of MS2 coat protein [2] | apparent KD of MS2 coat protein [3] | apparent KD of MS2 coat protein (input ligand: FMN 200 uM) | apparent KD of MS2 coat protein [4] | apparent KD of MS2 coat protein (input ligand: none)
UUUUAGUAAGGAUAUGAUUAGAUCUACUUCGGUAGAUCUAAUCAGAAGGUACAUGAGGAUCACCCAUGUAGAUU [Mod of Brourd 2 - Jieux - Exclusion 4] (Eterna round: R97, puzzle: Exclusion 4) |  |  |  | 24.1 nM |  | 18.8 nM
UGAGUGCUGCGAGGAUAUACAUGAGGAUCACCCAUGUAAUCGUGUGAGGCUUUGCCUCACACGAUGUAGAAGGCGCAGUACUCU [JL ENG2 1.09] (Eterna round: R96, puzzle: Exclusion NG 2) |  |  |  | 9.84 nM | 8.97 nM | 11.9 nM
UUUUUUGUUGUGAGGAUAUCGUAUUCUUUUUGUUACGAGAAGGCACAUGAGGAUCACCCAUGUUUCUUGAUGUU [JR_BMOE4_Sub067] (puzzle: Brourd's mod of Exclusion 4) |  | 15.3 nM |  |  |  | 
AUGUACCGGUGAGGAUAUUUUUAAUAGAACUUUAUGAUAUACAUGAGGAUCACCCAUGUUACUUUAAAGAAGGCAUCGGAUUAA [Mat - Exclusion NG 2 - Mod of JL - D85] (Eterna round: R96, puzzle: Exclusion NG 2) |  |  |  |  | 13.8 nM | 
CGCAACGCAAGAGGAUAUGUUGGACAUGAGGAUCACCCAUGUAAAAUUGGCGAAACGCAUAUCCAGUAGAAGGCUUCCGAGCAA [Eternabot solution 15] (Eterna round: R96, puzzle: Exclusion NG 2) |  |  |  | 34.6 nM | 15.9 nM | 24.1 nM
AGAAACAGAGGAUAUCGCGGACAGCACAUGAGGAUCACCCAUGUGAUGCUCCGCGGGCCGCGAGAAGGCUGAAAUG [Rateatge] (Eterna round: R96, puzzle: Exclusion 5) |  |  |  |  | 11.2 nM | 
GUUCCACAUGAGGAUCACCCAUGUGAGGAUAUGGUUUCGCUGGCCGUAGCCAGUGGAACCAGAAGGCGCGUGAU [Mat - Exclusion 1 - JL Mod - D19] (Eterna round: R97, puzzle: Exclusion 1) |  |  |  | 80.8 nM |  | 67.3 nM
CUGUGCACGCUGCGAUCCUACAUGAGGAUCACCCAUGUGGUCUGGUGGCGUGGGUCACCGGACUUGGCUCGUCUUGA [salish99_S_TOV1_R5_070] (Eterna round: R97, puzzle: Sensor, turn-off variant 1) |  |  |  | 147 nM |  | 156 nM
CAGAGCAGAGGAUAUACAUGAGGAUCACCCAUGUGAUCAUGCUACGGGACGUUACAUUGUAGAAGGCUGCUUUC [Eternabot (L2) Solution 58] (Eterna round: R97, puzzle: Exclusion 3) |  |  |  | 283 nM |  | 31.1 nM
UUUCAUCAUGUAGGAUAUGCGUGGCAAAGCUAUGCAGAAGGACAUGAGGAUCACCCAUGUUCUAGCGUCUGCGUACAGAUGCUA [Mat - Exclusion NG 1 - Mod of JL - D73] (Eterna round: R96, puzzle: Exclusion NG 1) |  |  |  | 404 nM | 43.2 nM | 68 nM
CUUUUGCAACAAGCCAAUAACAUGAGGAUCACCCAUGUCCUGUUGAGGUCUUCCGUCGUUCUUGCUCACGUCUUACG [Eternabot (L1) Solution 50] (Eterna round: R97, puzzle: Sensor, turn-off variant 1) |  |  |  | 54.8 nM |  | 56.3 nM
CCGCCGCAAGGAUAUACUUGCGGUGGUGUUCGAGUUCUUUUACUUGAGGAUCACCCAAGUAGAAGGUGCAAAAC [jl-ex2.4.55 ViennaUCT mod] (Eterna round: R97, puzzle: Exclusion 2) |  |  |  | 11.9 nM |  | 11.5 nM
AUACACUAAGUGAGGAUAUCGAUUUCUUUAAGGAUCGAGAAGGCACAUGAGGAUCACCCAUGUUUGACGUGAAU [JR_BMOE4_Sub096] (puzzle: Brourd's mod of Exclusion 4) |  | 30.3 nM |  |  |  | 
UGCUACGGAGGAUAUACAUGAGGAUCACCCAUGUGUGAGAUUUGGCCGAGAGGCCAAUGUAGAAGGCCGUAGCU [jl-ex3-4.20 jl mod] (Eterna round: R97, puzzle: Exclusion 3) |  |  |  | 371 nM |  | 35.9 nM
AAGACACAUGAGGAUCACCCAUGUGAGGAUAUUCGAUGCUGAGCGUAAGCUUAGUAUCGGAGAAGGUACAUAGG [Salishxclusion 9 - Jieux - Exclusion 1] (Eterna round: R97, puzzle: Exclusion 1) |  |  |  | 77.2 nM |  | 66.6 nM
CUAGCGAAUGUAGGAUAUCGGACUGUUUCAGUCUGAGAAGGACAUGAGGAUCACCCAUGUGUAGCUACGUGAGUAGCACGCUAG [JL ENG1 3.89] (Eterna round: R96, puzzle: Exclusion NG 1) |  |  |  | 58.7 nM | 16.1 nM | 27.5 nM
CCGCAUAUGGAGGAUAUCGUAUCGGAAACGAUACGAGAAGGCUAAACAUGAGGAUCACCCAUGUUCCUUAACGG [Fiskers Ex 6 - 29] (puzzle: Exclusion 6) |  | 15.2 nM |  |  |  | 
